B1: human complement component C3a (ligand)
chain: not shown

In assay [1] the target is T1, multisubunit FcεRI receptor complex on rat RBL-2H3 cells and rat peritoneal mast cells (rat, UniProt P12371 24-245; P13386 1-243; P20411 19-86).
T1 sequence (looked up) 1: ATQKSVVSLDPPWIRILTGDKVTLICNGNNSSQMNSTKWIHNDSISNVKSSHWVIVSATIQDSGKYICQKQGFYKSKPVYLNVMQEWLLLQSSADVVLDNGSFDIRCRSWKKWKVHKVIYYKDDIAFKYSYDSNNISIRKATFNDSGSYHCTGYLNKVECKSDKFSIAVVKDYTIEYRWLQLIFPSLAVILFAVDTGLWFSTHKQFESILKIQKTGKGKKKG
T1 sequence (looked up) 2: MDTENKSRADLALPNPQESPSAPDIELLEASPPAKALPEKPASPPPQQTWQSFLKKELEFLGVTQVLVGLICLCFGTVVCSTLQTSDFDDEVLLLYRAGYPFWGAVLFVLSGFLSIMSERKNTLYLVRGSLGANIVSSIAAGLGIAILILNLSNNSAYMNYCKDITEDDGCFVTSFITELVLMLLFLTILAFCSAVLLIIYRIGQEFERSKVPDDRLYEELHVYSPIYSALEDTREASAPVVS
T1 sequence (looked up) 3: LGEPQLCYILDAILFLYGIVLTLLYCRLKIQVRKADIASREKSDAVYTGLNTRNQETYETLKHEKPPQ
Put plainly: cell-based or functional assay.

Assay [2] addresses T2, β-chain of the high affinity IgE receptor (FcεRI) on mouse bone marrow derived mast cells (mouse, UniProt P20490 1-235).
T2 sequence (looked up): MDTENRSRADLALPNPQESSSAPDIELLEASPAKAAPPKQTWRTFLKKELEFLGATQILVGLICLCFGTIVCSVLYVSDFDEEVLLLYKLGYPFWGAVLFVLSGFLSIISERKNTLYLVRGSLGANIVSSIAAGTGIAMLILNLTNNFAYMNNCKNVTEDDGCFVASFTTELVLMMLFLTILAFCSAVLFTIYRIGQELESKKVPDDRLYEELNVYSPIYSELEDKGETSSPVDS
Put plainly: cell-based or functional assay.

A further assay addresses T3, C5a (UniProt P01031 678-751).
T3 construct: domain: C5a; Control analyte in SPR
T3 sequence (looked up): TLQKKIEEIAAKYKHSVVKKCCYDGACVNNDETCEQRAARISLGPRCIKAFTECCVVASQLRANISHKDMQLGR
Put plainly: SPR (BIACORE 2000), peptide on streptavidin chip, C5a as analyte. In general terms: SPR reads the build-up and loss of mass on a sensor chip optically.

In assay [3] the target is B1. Put plainly: SPR (BIACORE 2000), biotinylated peptide on streptavidin chip, C3a as analyte; Kd = koff/kon from kobs plots; first extracellular loop of the human protein.
The target of assay [4] is B1. Put plainly: SPR (BIACORE 2000), peptide on streptavidin chip, C3a as analyte.

Ends that are not written are not given here. * marks the point of attachment. Biotin = O=C1N[C@H]2[C@H](CS[C@H]2CCCCC(=O)*)N1

As to B1, the “Inhibitory effect (IC50, µM) on the IgE-mediated degranulation of RBL-2H3” value in assay [1] worked out at 2.4 µM. In addition, the “Inhibitory effect (IC50, µM) on the IgE-mediated degranulation of BMMC” value in assay [2] worked out at 0.2 µM.

B2: biotinylated peptide of the 1st extracellular loop of the human FcεRI β chain (peptide)
peptide: Biotin-SVLDISHIEGDIFSSFKAGY
notes: also called first extracellular loop of human FcεRI β-chain
With B2, in the assay with C5a, the binding result is “no binding”. Further, in assay [3], the Kd amounted to 250 nM.

B3: biotinylated peptide of the 2nd extracellular loop of the human FcεRI β chain (peptide)
peptide: Biotin-KSLAYIHIHSCQKFFETKCFMAS
modifications: cysteine pairing not given here
notes: also called second extracellular loop of human FcεRI β-chain
In the case of B3, the binding result (with C5a; in assay [4]) was “no binding” in each case.

A word on the Kd: it is the equilibrium constant for the complex coming apart. Read a high Kd as a looser complex.

The record behind these values is US20090075898A1 (YEDA RESEARCH AND DEVELOPMENT CO LTD AT THE WEIZMANN …, published 2009).
